# From article PMC7596816 (The Journal of Experimental Medicine, 2020)
# T1: PfCSP_(71–104) (N-CSP construct) (Plasmodium falciparum, UniProt P19597)
# T1 construct: Plasmodium falciparum circumsporozoite protein residues 71–104, cloned into a pETM-22 vector; pETM-22 adds, as far as I recall, an N-terminal thioredoxin and His6 with a 3C protease site; source: E. coli BL21(DE3), purified (HisTrap, SEC)
# T1 chain: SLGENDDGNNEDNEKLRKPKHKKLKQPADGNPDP
# T2: PfCSP_(81–98) peptide (Plasmodium falciparum, UniProt P19597)
# T2 construct: Plasmodium falciparum circumsporozoite protein residues 81–98; Only residues 81–92 are resolved in the crystal structure; also called N-CSP peptide; source: synthetic peptide, bought: GenScript
# T2 chain: EDNEKLRKPKHKKLKQPA
# Legend:
# [1] = molecular target: T1, PfCSP_(71–104) (N-CSP construct); test: ELISA; PfCSP71–104 coated at 50 ng/well; mAb at 4.00, 1.00, 0.25 and 0.06 µg/ml; goat anti-human IgG-HRP; area under the curve; details: both partners purified
# [2] = molecular target: PfCSP on the surface of live Pf NF54 sporozoites (Plasmodium falciparum NF54 (endogenous in sporozoites)) (UniProt P19597); test: flow cytometry on cells; imaging flow cytometry (ImageStreamX Mk II) of live (propidium iodide-negative) Pf salivary gland sporozoites; mAb 1 µg/ml, 30 min 4°C, Cy5 anti-human IgG1
# PfCSP on the surface of live Pf NF54 sporozoites (Plasmodium falciparum NF54 (endogenous in sporozoites)), sequence (P19597 19-374): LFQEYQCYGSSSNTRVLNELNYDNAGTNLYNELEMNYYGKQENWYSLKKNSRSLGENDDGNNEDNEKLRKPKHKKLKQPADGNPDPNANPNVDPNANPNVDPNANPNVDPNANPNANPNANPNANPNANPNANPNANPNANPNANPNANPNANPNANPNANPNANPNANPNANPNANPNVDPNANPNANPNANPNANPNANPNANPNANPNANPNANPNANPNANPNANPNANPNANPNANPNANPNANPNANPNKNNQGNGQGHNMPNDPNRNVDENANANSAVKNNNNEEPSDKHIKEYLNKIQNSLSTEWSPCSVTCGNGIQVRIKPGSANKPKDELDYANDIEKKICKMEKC
# [3] = molecular target: PfCSP on the surface of live Pf NF54 sporozoites (Plasmodium falciparum NF54 (endogenous in sporozoites)) (UniProt P19597); test: flow cytometry on cells; imaging flow cytometry (ImageStreamX Mk II) of live (propidium iodide-negative) Pf midgut sporozoites isolated from oocysts; mAb 1 µg/ml, 30 min 4°C, Cy5 anti-human IgG1
# PfCSP_(81–98) peptide = molecular target: T2, PfCSP_(81–98) peptide; test: crystal structure; 5D5 Fab and PfCSP81–98 peptide mixed 1:5; 20% (wt/vol) PEG 3350, 0.2 M di-ammonium citrate; 1.85 Å; details: both partners purified
# [4] = molecular target: T1, PfCSP_(71–104) (N-CSP construct); test: SEC; 5D5 Fab complexed with PfCSP71–104 at 1:1 molar ratio, with or without 100-fold molar excess of heparin sodium salt; Superdex 200 Increase 10/300 GL; peak fractions on non-reducing SDS-PAGE; details: both partners purified
Binder,binding result [1],fold decrease in MFI of mAb-bound sporozoites against mAb 1210 [2] [fold],"mAb-bound sporozoites (pos1) of tot1 487, Exp 2 [2] [sporozoites]","mAb-bound sporozoites (pos1) of tot1 545, Exp 1 [2] [sporozoites]","mAb-bound sporozoites (pos1) of tot1 1096, Exp 3 [2] [sporozoites]",proportion of mAb-bound sporozoites [2] [%],"mAb-bound sporozoites (pos1) of tot1 262, Exp 1 [3] [sporozoites]","mAb-bound sporozoites (pos1) of tot1 728, Exp 2 [3] [sporozoites]","mAb-bound sporozoites (pos1) of tot1 1,456, Exp 3 [3] [sporozoites]",binding result (PfCSP_(81–98) peptide),binding result [4]
"5D5 IgG (5D5 variable regions on human Igγ1 and Igκ, for non-yeast display experiments) (antibody, V domains shown, as the heavy chain of m1 (5D5 VH + human Igγ1-CH1); two residues that replace the two stop codons of the Fab heavy chain vector; human immunoglobulin gamma-1 constant region, the part after the Fab heavy chain through the CH2 and CH3 domains; as the light chain of m1 (5D5 VL + human Igκ); Chimeric human IgG1; detected with anti-human IgG1 or anti-human IgG secondary antibodies; also called mAb …) VH: QVHLQQSGGEVARPGASVKLSCKASGYTFTGYGLSWVKQRTGQGLEWIGEIYPRSGNTYYNEKFKGKATLTADKSSSTAYMELRSLTSEDSAVYFCARSWGNSSFVYWGQGTLVTVSA VL: SIVMTQTPKFLLVSAGDRVTITCKASQSVTNDVTWYQQKPGQSPKLLIYYASNRYTGVPDRFTGSGYGTDFTFTISTVQAEDLAVYFCQQDYSSPFTFGSGTKLEIK",binds,2,82,176,316,27,67,229,366,–,–
"5D5 Fab expressed in HEK293F cells (complex glycan at H.Asn98) (Fab, V domains shown, murine mAb 5D5 VH cloned immediately upstream of human Igγ1-CH1; murine mAb 5D5 VL cloned immediately upstream of human Igκ; Chimeric Fab (mouse variable, human constant domains); The crystal structure used this glycoform; also called HEK293F–expressed 5D5 Fab; source: HEK293F, transient cotransfection, purified (KappaSelect, MonoS, SEC)) VH: QVHLQQSGGEVARPGASVKLSCKASGYTFTGYGLSWVKQRTGQGLEWIGEIYPRSGNTYYNEKFKGKATLTADKSSSTAYMELRSLTSEDSAVYFCARSWGNSSFVYWGQGTLVTVSA VL: SIVMTQTPKFLLVSAGDRVTITCKASQSVTNDVTWYQQKPGQSPKLLIYYASNRYTGVPDRFTGSGYGTDFTFTISTVQAEDLAVYFCQQDYSSPFTFGSGTKLEIK",–,–,–,–,–,–,–,–,–,binds,binds
